Source: the supplement of paper PMC10567573

B1: MNAT1 (parent)
chain: SLREYNDFLEEVEEIVFNLTNNVD

Variants of: B1
Test: protein stability index of a GFP-peptide fusion (GPS, HEK-293T) (PSI 1-6); higher = more stable
Settings: c terminus: a fixed tail appended
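Note: lentivirally expressed fusions sorted by FACS into six bins by GFP to DsRed ratio, PSI derived from sequencing read proportions per bin multiplied by bin number.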

Variant | protein stability index
SRREYNDFLEEVEEIVFNLTNNVD | 3.65
SPREYNDFLEEVEEIVFNLTNNVD | 3.72
SYREYNDFLEEVEEIVFNLTNNVD | 2.36
SLREENDFLEEVEEIVFNLTNNVD | 4.35
SLREQNDFLEEVEEIVFNLTNNVD | 4.19
SLRECNDFLEEVEEIVFNLTNNVD | 3.11
SLREWNDFLEEVEEIVFNLTNNVD | 2.56
SLREMNDFLEEVEEIVFNLTNNVD | 1.73
SLREDNDFLEEVEEIVFNLTNNVD | 2.23
SLRETNDFLEEVEEIVFNLTNNVD | 4.08
SLREVNDFLEEVEEIVFNLTNNVD | 2.05
SLREANDFLEEVEEIVFNLTNNVD | 3.78
SLRESNDFLEEVEEIVFNLTNNVD | 4.29
SLREINDFLEEVEEIVFNLTNNVD | 2.61
SLRERNDFLEEVEEIVFNLTNNVD | 4.19
SLREGNDFLEEVEEIVFNLTNNVD | 3.91
SLREPNDFLEEVEEIVFNLTNNVD | 3.81
SLRENNDFLEEVEEIVFNLTNNVD | 4.14
SLREHNDFLEEVEEIVFNLTNNVD | 3.81
SLREKNDFLEEVEEIVFNLTNNVD | 4.55
SLRELNDFLEEVEEIVFNLTNNVD | 2.16
SLREFNDFLEEVEEIVFNLTNNVD | 1.58
SLRIYNDFLEEVEEIVFNLTNNVD | 1.69
SLRLYNDFLEEVEEIVFNLTNNVD | 2.5

Variant | protein stability index
SLRHYNDFLEEVEEIVFNLTNNVD | 2.66
SLRRYNDFLEEVEEIVFNLTNNVD | 1.85
SLRWYNDFLEEVEEIVFNLTNNVD | 1.8
SLRMYNDFLEEVEEIVFNLTNNVD | 2.26
SLRSYNDFLEEVEEIVFNLTNNVD | 2.31
SLRAYNDFLEEVEEIVFNLTNNVD | 1.88
SLRFYNDFLEEVEEIVFNLTNNVD | 2.34
SLRNYNDFLEEVEEIVFNLTNNVD | 2.04
SLRYYNDFLEEVEEIVFNLTNNVD | 1.39
SLRQYNDFLEEVEEIVFNLTNNVD | 2.27
SLRTYNDFLEEVEEIVFNLTNNVD | 1.72
SLRPYNDFLEEVEEIVFNLTNNVD | 2.98
SLRGYNDFLEEVEEIVFNLTNNVD | 2.39
SLRVYNDFLEEVEEIVFNLTNNVD | 2.08
SLRDYNDFLEEVEEIVFNLTNNVD | 2.19
SLRKYNDFLEEVEEIVFNLTNNVD | 2.75
SLRCYNDFLEEVEEIVFNLTNNVD | 1.95
SLREYNGFLEEVEEIVFNLTNNVD | 1.75
SLREYNWFLEEVEEIVFNLTNNVD | 1.96
SLREYNLFLEEVEEIVFNLTNNVD | 1.94
SLREYNQFLEEVEEIVFNLTNNVD | 1.83
SLREYNEFLEEVEEIVFNLTNNVD | 1.91
SLREYNCFLEEVEEIVFNLTNNVD | 2.27
SLREYNHFLEEVEEIVFNLTNNVD | 1.31

Variant | protein stability index
SLREYNYFLEEVEEIVFNLTNNVD | 1.79
SLREYNMFLEEVEEIVFNLTNNVD | 2.27
SLREYNTFLEEVEEIVFNLTNNVD | 1.47
SLREYNVFLEEVEEIVFNLTNNVD | 2.16
SLREYNAFLEEVEEIVFNLTNNVD | 2.43
SLREYNPFLEEVEEIVFNLTNNVD | 3
SLREYNSFLEEVEEIVFNLTNNVD | 2.05
SLREYNFFLEEVEEIVFNLTNNVD | 2.32
SLREYNNFLEEVEEIVFNLTNNVD | 2.49
SLREYNKFLEEVEEIVFNLTNNVD | 1.58
SLREYNRFLEEVEEIVFNLTNNVD | 1.63
SLREYSDFLEEVEEIVFNLTNNVD | 3.31
SLREYEDFLEEVEEIVFNLTNNVD | 1.76
SLREYADFLEEVEEIVFNLTNNVD | 2.82
SLREYWDFLEEVEEIVFNLTNNVD | 2.38
SLREYQDFLEEVEEIVFNLTNNVD | 1.75
SLREYIDFLEEVEEIVFNLTNNVD | 2.63
SLREYVDFLEEVEEIVFNLTNNVD | 1.68
SLREYCDFLEEVEEIVFNLTNNVD | 1.78
SLREYRDFLEEVEEIVFNLTNNVD | 2.23
SLREYTDFLEEVEEIVFNLTNNVD | 2.27
SLREYKDFLEEVEEIVFNLTNNVD | 3.15
SLREYDDFLEEVEEIVFNLTNNVD | 2.4
SLREYPDFLEEVEEIVFNLTNNVD | 3.08

Variant | protein stability index
SLREYHDFLEEVEEIVFNLTNNVD | 1.8
SLREYMDFLEEVEEIVFNLTNNVD | 1.76
SLREYFDFLEEVEEIVFNLTNNVD | 2.77
SLREYGDFLEEVEEIVFNLTNNVD | 3.17
SLREYYDFLEEVEEIVFNLTNNVD | 1.87
SLREYNDFLERVEEIVFNLTNNVD | 2.17
SLREYNDFLECVEEIVFNLTNNVD | 2.33
SLREYNDFLEDVEEIVFNLTNNVD | 2.51
SLREYNDFLEGVEEIVFNLTNNVD | 2.13
SLREYNDFLENVEEIVFNLTNNVD | 1.68
SLREYNDFLEAVEEIVFNLTNNVD | 1.86
SLREYNDFLEMVEEIVFNLTNNVD | 1.87
SLREYNDFLEPVEEIVFNLTNNVD | 3.1
SLREYNDFLEWVEEIVFNLTNNVD | 2.46
SLREYNDFLESVEEIVFNLTNNVD | 1.73
SLREYNDFLEKVEEIVFNLTNNVD | 2.07
SLREYNDFLEIVEEIVFNLTNNVD | 1.89
SLREYNDFLEYVEEIVFNLTNNVD | 2.23
SLREYNDFLEHVEEIVFNLTNNVD | 2.07
SLREYNDFLEFVEEIVFNLTNNVD | 1.49
SLREYNDFLEQVEEIVFNLTNNVD | 1.72
SLREYNDFLETVEEIVFNLTNNVD | 1.97
